Data as given in patent publication US20110152166A1, “METHOD OF MODULATION OF PROTEIN PHOSPHORYLATION-DEPENDENT CONFORMATIONAL TRANSITIONS WITH LOW MOLECULAR WEIGHT COMPOUNDS” (priority 2006, published 2011).
Where a chain is given by its changes, count along the chain named. Square brackets hold non-standard residues; d marks the D form. Ends that are not written are not given here. pS = N[C@@H](COP(=O)(O)O)C(=O)O

Assays:
Test in all cases: PDK1 activity assay with T308tide
Type in all cases: biochemical
[1] = target: T1, GST-PDK1 [Gln150Ala] (Homo sapiens, UniProt O15530, Q150A); settings: PDK1[Gln150Ala]; 20 μM
T1 construct: different protein constructs, comprising the full length protein or the catalytic domain alone; made in house; host or cells: HEK293 cells (pEBG-2T-PDK1 mutant)
T1 sequence (O15530 1-556 Q150A): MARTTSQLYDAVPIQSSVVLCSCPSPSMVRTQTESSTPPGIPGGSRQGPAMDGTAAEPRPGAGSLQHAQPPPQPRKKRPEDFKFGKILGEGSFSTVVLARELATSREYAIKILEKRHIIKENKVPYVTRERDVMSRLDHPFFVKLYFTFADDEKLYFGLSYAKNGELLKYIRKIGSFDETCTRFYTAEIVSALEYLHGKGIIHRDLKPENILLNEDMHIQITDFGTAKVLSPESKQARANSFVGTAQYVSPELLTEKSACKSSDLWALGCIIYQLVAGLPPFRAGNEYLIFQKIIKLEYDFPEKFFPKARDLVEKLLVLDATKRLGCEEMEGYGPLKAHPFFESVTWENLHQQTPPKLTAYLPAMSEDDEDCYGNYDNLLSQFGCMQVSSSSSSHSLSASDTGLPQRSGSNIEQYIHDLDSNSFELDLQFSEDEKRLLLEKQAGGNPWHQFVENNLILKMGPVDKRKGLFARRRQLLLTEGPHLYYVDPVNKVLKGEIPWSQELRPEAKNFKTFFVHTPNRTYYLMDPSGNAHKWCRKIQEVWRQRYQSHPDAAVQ
Experimental: (§1) Protein kinase activity tests were performed essentially as previously described (Balendran et al., 2000; Biondi et al., 2000; Biondi et al., 2001). Substrates used were either MBP (for PKCζ or polypeptides (Crosstide for PKB, S6K, SGK and PRK2; T308tide for PDK1, and Kemptide for PKA). PKA (Sigma) was measured in the presence of 100 μM cAMP. Alternatively, assays were performed in a 96 well format, aliquots spotted on p81 phosphocellulose papers (Whatmann), washed in 0.01% phosphoric acid, dried, and then exposed and analysed using Phospholmager technology (Storm, Molecular Dynamics). Activity measurements were performed in duplicates with less than 10% difference between duplicate pairs. Experiments were repeated at least twice, although most of the experiments were repeated multiple times, with similar results.
(§2) PDK1 activity assay was performed in a 20 μl mix containing 50 mM Tris-HCl pH 7.5, 0.05 mg/ml BSA, 0.1% β-mercaptoethanol, 10 mM MgCl2, 100 μM [γ^32P]ATP (5-50 cpm/pmol), 0.003% Brij, 150 ng PDK1, and T308tide (from 0.05 to 1 mM). PDK1 specific activity was approximately 5 U/mg (when measured at 1 mM T308tide). The effect of small compounds on PDK1 was repeated with proteins from different purification batches and with different protein constructs, comprising the full length protein or the catalytic domain alone, with similar results. […] This variability may be due to the PIFtide/compound-stimulated autophosphorylation of the activation loop in certain preparations having less than a 1:1 molar phosphorylation stoichiometry at this site.
(§3) PDK1 activity was measured at room temperature using a polypeptide substrate derived from the activation loop phosphorylation site of PKB, T308tide (0.1 mM). […] GST-PDK1 wt was purified in numerous occasions and the maximal activation level of different batches varied between 3 and 8 fold activation with PIFtide or compound 1. Variations in the basal activity and fold activation were also observed in mutants. Therefore, comparisons in the maximal level of activation between mutants should be performed with care. The data shown are from an experiment where PIFtide concentrations were tested between 50 nM and 20 µM and compound 1 concentrations were between 5 μM and 200 μM, in triplicate. AC50 and max. activity were estimated by fitting the data to a hyperbola using Kaleidagraph software. One Unit of PDK1 activity was defined as the amount required to catalyse the phosphorylation of 1 nmol of the T308tide in 1 min.

[2] = target: T2, GST-PDK1 [Ile119Ala] (Homo sapiens, UniProt O15530, I119A); settings: Ile119 mutant; P-HM-RSK 20 μM
T2 construct: different protein constructs, comprising the full length protein or the catalytic domain alone; made in house; host or cells: HEK293 cells (pEBG-2T-PDK1 mutant)
T2 sequence (O15530 1-556 I119A): T1 sequence (O15530 1-556 Q150A) with I119A, A150Q
Experimental: as §1, §2, §3

[3] = target: T3, GST-PDK1 [Thr148Val] (Homo sapiens, UniProt O15530, T148V); settings: PDK1[Thr148Val]; 20 μM
T3 construct: different protein constructs, comprising the full length protein or the catalytic domain alone; made in house; host or cells: HEK293 cells (pEBG-2T-PDK1 mutant)
T3 sequence (O15530 1-556 T148V): T1 sequence (O15530 1-556 Q150A) with T148V, A150Q
Experimental: as §1, §2, §3

[4] = target: T4, GST-PDK1 wt (Homo sapiens, UniProt O15530)
T4 construct: different protein constructs, comprising the full length protein or the catalytic domain alone; made in house; host or cells: HEK293 cells (pEBG-2T-PDK1)
T4 sequence (O15530 1-556): T1 sequence (O15530 1-556 Q150A) with A150Q
Experimental: as §1, §2, §3

Row | activation of PDK1 mutant (in words) [1] | activation of PDK1 mutant (in words) [2] | activation of PDK1 mutant (in words) [3] | activation of PDK1 (in words) ([4]; PDK1 wild type) | activation of PDK1 (in words) ([4]; concentrations up to 500 µM, data not shown) | Substance
1 | completely abolished | completely abolished | completely abolished | activated |  | P-HM-PKB: phosphorylated HM polypeptide of PKB: KGAGGGGFPQFS(P)YSA (KGAGGGGFPQF[pS]YSA) [reference compound]
2 |  |  |  |  | did not activate PDK1 | GFRDFDY [polypeptide comprising the complete hydrophobic motif present in PIFtide, reference compound]
